Assay results taken from article PMC6077193, “Intravascular Schistosoma mansoni Cleave the Host Immune and Hemostatic Signaling Molecule Sphingosine-1-Phosphate via Tegumental Alkaline Phosphatase” (Frontiers in Immunology, 2018).

Assays:
Assay in all cases: purified protein
[1] = tested on: Cc1cn([C@H]2C[C@H](O)[C@@H](COP(=O)(O)O)O2)c(=O)[nH]c1=O; details: 50 mM Tris-HCl pH 9, 5 mM KCl, 135 mM NaCl, 10 mM glucose, 10 mM MgCl2, 0-2 mM substrate
[2] = tested on: Nc1ncnc2c1ncn2[C@@H]1O[C@H](COP(=O)(O)O)[C@@H](O)[C@H]1O; details: 50 mM Tris-HCl pH 9, 5 mM KCl, 135 mM NaCl, 10 mM glucose, 10 mM MgCl2, 0-2 mM substrate
[3] = tested on: Nc1ccn([C@@H]2O[C@H](COP(=O)(O)O)[C@@H](O)[C@H]2O)c(=O)n1; details: 50 mM Tris-HCl pH 9, 5 mM KCl, 135 mM NaCl, 10 mM glucose, 10 mM MgCl2, 0-2 mM substrate
[4] = tested on: Nc1nc2c(ncn2[C@@H]2O[C@H](COP(=O)(O)O)[C@@H](O)[C@H]2O)c(=O)[nH]1; details: 50 mM Tris-HCl pH 9, 5 mM KCl, 135 mM NaCl, 10 mM glucose, 10 mM MgCl2, 0-2 mM substrate
[5] = tested on: O=[N+]([O-])c1ccc(OP(=O)(O)O)cc1; details: 50 mM Tris-HCl pH 9, 5 mM KCl, 135 mM NaCl, 10 mM glucose, 10 mM MgCl2

rSmAP (recombinant Schistosoma mansoni alkaline phosphatase) (Schistosoma mansoni)
Km [1]: 595 µM | Km [2]: 650 µM | Km [3]: 630 ± 20 µM | Km [4]: 640 ± 11 µM | Km [5]: 288 ± 12 µM
